Assay in all cases: SPR
Assay [1] concerns the target T1, Tissue factor (TF) extracellular domain (human, UniProt P13726).
T1 chain: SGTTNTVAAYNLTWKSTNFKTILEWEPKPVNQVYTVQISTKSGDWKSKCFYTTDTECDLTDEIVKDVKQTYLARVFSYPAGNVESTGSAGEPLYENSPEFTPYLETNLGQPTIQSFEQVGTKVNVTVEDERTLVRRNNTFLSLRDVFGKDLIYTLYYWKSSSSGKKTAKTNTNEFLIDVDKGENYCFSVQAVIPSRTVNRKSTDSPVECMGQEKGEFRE

Assay [2] addresses T1, Tissue factor (TF) extracellular domain.
Assay [3] shares this target.
The target is the same in assay [4].

Several values for one entry are separate records, joined by “and”; a condition that tells them apart may be missing. Identical values can stand only once. Like-named read-outs stand apart in the source and are kept apart here.

The term Kd denotes the constant that tells how readily two partners part at equilibrium.

B1: D3H44 WT Fab (antibody)
chain 1: EVQLVESGGGLVQPGGSLRLSCAASGFNIKEYYMHWVRQAPGKGLEWVGLIDPEQGNTIYDPKFQDRATISADNSKNTAYLQMNSLRAEDTAVYYCAR
chain 2: DIQMTQSPSSLSASVGDRVTITCRASRDIKSYLNWYQQKPGKAPKVLIYYATSLAEGVPSRFSGSGSGTDYTLTISSLQPEDFATYYCLQHG
Regarding B1, the Kd is 0.052 nM in assay [1]; 0.06 nM in assay [2]; 0.0522 nM and 0.0622 nM in assay [3]; 0.056 nM in assay [4].

The values are drawn from US11286293.
